Measured values published in PMC4130213.

Columns and labels:
[1] = test system: CovR (unphosphorylated) (Streptococcus pyogenes (M6 serotype, JRS4?)); assay: DNase I footprinting; details: not given in the material (DNase I protection assay details absent)
[2] = test system: CovR-P (phosphorylated CovR) (Streptococcus pyogenes (M6 serotype, JRS4?)); assay: DNase I footprinting; details: not given in the material (DNase I protection assay details absent)

## Pska wild type
[1]
  binding signal: 3 µM
[2]
  binding signal: 0.25 µM
